Results as given in US20240010747A1, “ANTI-MRP4 (ENCODED BY ABCC4 GENE) ANTIBODIES AND USES THEREOF” (Kenjockety Biotechnology, Inc., priority 2020, published 2024).

T1: human ABCC4 (Homo sapiens, UniProt O15439)
T1 construct: expressed in transfected cells
T1 sequence (O15439 1-1325): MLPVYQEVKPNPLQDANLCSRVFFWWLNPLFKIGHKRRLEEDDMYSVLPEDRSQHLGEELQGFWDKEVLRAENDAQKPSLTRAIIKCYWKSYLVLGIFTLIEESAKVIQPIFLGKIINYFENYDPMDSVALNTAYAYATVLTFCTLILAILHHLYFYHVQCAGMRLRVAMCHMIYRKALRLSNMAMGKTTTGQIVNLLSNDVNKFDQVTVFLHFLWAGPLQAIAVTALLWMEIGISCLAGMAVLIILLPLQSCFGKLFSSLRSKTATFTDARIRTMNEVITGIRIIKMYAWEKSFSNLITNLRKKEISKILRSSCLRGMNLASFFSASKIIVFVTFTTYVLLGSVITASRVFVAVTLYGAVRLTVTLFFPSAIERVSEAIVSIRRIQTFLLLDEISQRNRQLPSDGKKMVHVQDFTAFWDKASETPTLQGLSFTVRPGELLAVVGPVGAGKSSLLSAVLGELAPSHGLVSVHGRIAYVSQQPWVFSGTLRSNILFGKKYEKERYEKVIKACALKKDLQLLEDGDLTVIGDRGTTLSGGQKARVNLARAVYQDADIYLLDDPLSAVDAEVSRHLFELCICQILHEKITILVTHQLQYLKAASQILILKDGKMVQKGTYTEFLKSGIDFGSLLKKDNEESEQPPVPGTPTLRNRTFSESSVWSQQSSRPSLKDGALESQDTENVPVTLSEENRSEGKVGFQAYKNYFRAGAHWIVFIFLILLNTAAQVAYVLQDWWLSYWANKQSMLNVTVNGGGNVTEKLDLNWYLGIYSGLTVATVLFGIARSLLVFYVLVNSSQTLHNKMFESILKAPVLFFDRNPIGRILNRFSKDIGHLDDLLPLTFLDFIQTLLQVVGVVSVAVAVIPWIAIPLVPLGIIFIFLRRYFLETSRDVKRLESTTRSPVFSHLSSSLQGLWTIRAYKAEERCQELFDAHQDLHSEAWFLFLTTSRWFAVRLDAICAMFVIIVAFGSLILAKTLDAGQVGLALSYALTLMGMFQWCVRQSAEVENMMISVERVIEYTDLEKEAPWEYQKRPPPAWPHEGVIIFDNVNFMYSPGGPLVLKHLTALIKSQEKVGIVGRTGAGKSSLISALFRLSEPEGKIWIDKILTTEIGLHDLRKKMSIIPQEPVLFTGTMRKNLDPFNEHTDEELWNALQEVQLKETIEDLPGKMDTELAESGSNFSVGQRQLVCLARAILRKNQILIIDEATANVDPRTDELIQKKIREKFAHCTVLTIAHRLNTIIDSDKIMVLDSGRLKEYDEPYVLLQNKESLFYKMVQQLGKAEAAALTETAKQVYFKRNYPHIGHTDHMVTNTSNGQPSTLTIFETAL


Tests used:
[1] = system: cynomolgus ABCC4; assay: Flow cytometry (FACS) binding to C6 cells stably transfected to express cynomolgus ABCC4 (different experiment, different C6.cC4 cell line, Table 4); design: key to Cynomolgus ABCC4 binding: Negative (−)=Rmax (MFI) below background level; Positive (+)=MFI>3× background level; details: for binding to cynomolgus ABCC4 expressed on cell surface: Table 4 study, stated in words; for Cynomolgus ABCC4 binding: different C6.cC4 cell line, C6 cells stably transfected to express cynomolgus ABCC4, FACS, Table 4
Description: (§1) Binding titration of recombinant antibodies to ABCC4 transfectants was performed by serial dilution of antibodies from about 666 nM. Diluted antibody in flow cytometry buffer was incubated with cells on ice for 30 min. After 2 washes with flow cytometry buffer, bound antibody was detected with PE-labeled F(ab′)2 fragment goat anti-human IgG (Jackson ImmunoResearch) diluted 1:200 in flow cytometry buffer and incubated with cells for 20 min on ice. After 2 washes with flow cytometry buffer fluorescence was measured on an Attune N×T flow cytometer. Data were analyzed with GraphPad Prism 8.0 software to determine EC50's.
(§2) Human embryonic kidney HEK 293T cells and murine C6 (ATCC CCL-107) were transfected with human or cynomolgus ABCC4 cDNA with C-terminal fused FLAG tag in a pMONO-hygro vector with Lipofectamine 3000 (Invitrogen #L3000001). The cells were treated with 0.2 mg/ml and 0.5 mg/ml hygromycin respectively for about 2 weeks while cultivated in DMEM and 10% FBS with 0.2 mg/ml hygromycin and 0.5 mg/ml hygromycin, respectively. The cells were washed with PBS, and stained with […] of anti-FLAG-PE after fixing and permeablization. Clones expressing ABCC4 were single-cell sorted into 200 μl DMEM with 10% FBS using a BD Aria FACS machine and cultivated in 96 well plates using standard techniques in an incubator at 37° C. and 5% CO 2. Two weeks later clones expressing high levels of ABCC4 were screened and amplified.
(§3) Antibody binding to cells was evaluated by flow cytometry. Murine C6 cells stably transfected to express human or cynomolgus ABCC4 were washed once in flow cytometry buffer (PBS+2% FBS+0.02% sodium azide), resuspended at 2×10^6 cells/mL in flow cytometry buffer, and dispensed into 96-well microtiter plates at 0.1 mL/well. Recombinant antibodies were added to cells at 5 ug/mL for initial binding confirmation, or serially diluted from 100 ug/mL in flow cytometry buffer. After incubating cells on ice for 30 min, cells were washed twice with flow cytometry buffer. Bound antibody was detected with PE-labeled F(ab′)2 fragment goat anti-human IgG (Jackson ImmunoResearch) and evaluated on an Attune N×T flow cytometer. EC50 is calculated to be the concentration of antibody that gives half maximal response.
(§4) In a different experiment, using a different C6.cC4 cell line, detecting the binding of anti-ABCC4 antibodies to C6 cells stably transfected to express human ABCC4 measured by FACS and to C6 cells stably transfected to express cynomolgus ABCC4 measured by FACS, the results set forth in Table 4 were obtained. Negative (−)=Rmax (MFI) below background level. Positive (+)=MFI>3× background level.

[2] = target: T1, human ABCC4; assay: Flow cytometry (FACS) binding to C6 cells stably transfected to express human ABCC4 (different experiment, Table 4); details: for Human ABCC4 binding: C6 cells stably transfected to express human ABCC4, FACS, different experiment, Table 4; for binding to human ABCC4 expressed on cell surface: Table 4 study, stated in words
Description: as §1, §2, §3, §4

Molecule	Human ABCC4 binding [2]	binding to human ABCC4 expressed on cell surface [2]	binding to cynomolgus ABCC4 expressed on cell surface [1]	Cynomolgus ABCC4 binding [1]
C4.1069: anti-ABCC4 antibody raised in rats; VH SEQ ID NO: 22, VL SEQ ID NO: 144 (antibody, V domains shown) VH: GLVQPSQTLSLTCTVSGFSLNSNGVSWVRQPPGKGLEWIVEISSGGSAFYNSALKSRLSISRDTSKSQVFLKMNSLQTEDTAIYFCTRGGTEDPDYFDYWGQGASVTVSS VL: DIVLTQSPSSLAVSAGETVTINCKSSQSLLYSGNQKNYLAWYQQTPGQSPKLLIYWASTRQSGVPDRFIGSGSGTDFILTITSVQAEDLAIYYCQQYYDTPVTFGSGTKLELK	+ (Positive (+)=MFI>3× background level)	bind to both human and cynomolgus ABCC4	bind to both human and cynomolgus ABCC4	+ (Positive (+)=MFI>3× background level)
C4.970: anti-ABCC4 antibody raised in rats; VH SEQ ID NO: 10, VL SEQ ID NO: 131 (antibody, V domains shown) VH: EVQLVESGPGLVQPSQTLSLTCTVAGFSLTSYNVHWVRQPPGKGLEWMGVIWNTGDTRYDSALKSRLSISKDTSKSQVFLNMNSLQTEDTATYYCARDDNVYYGMHAMDAWGQGASVTVSS VL: DIKMIQSPSSLSASLGERVTISCRASENINNYLSWYQKKEDGSVKLLIYHTSRLQPGAPSRFSGSGSGKDYSLTISGLDSEDIATYYCQQGYTPPTFGAGTKLELK	+ (Positive (+)=MFI>3× background level)			−
C4.957: anti-ABCC4 antibody raised in rats; VH SEQ ID NO: 8, VL SEQ ID NO: 127 (antibody, V domains shown) VH: EVQLKESGPGLVQPSQTLSLTCTVSGFSLTNYGVSWVRQPPGKGLEWIGAIWSGGSTGYNSALKSRLSISRDTSKSQVLLKMNSLQTEDTAMYFCARSGVEGPPFDYWGQGASVTVSS VL: AIQVTQSPTSLSASLGDRVTLTCRASQDINNKMAWYQQKPGEVPQLLIYYASTLQSGTPSRFSGSGSGTDFSFTISHLQSEDFATYYCLQGYSLYTFGAGTKLELK	+ (Positive (+)=MFI>3× background level)	bind to both human and cynomolgus ABCC4	bind to both human and cynomolgus ABCC4	+ (Positive (+)=MFI>3× background level)
C4.956: anti-ABCC4 antibody raised in rats; VH SEQ ID NO: 7, VL SEQ ID NO: 127 (antibody, V domains shown) VH: QLKESGPGLVKPSQSLSLTCSVTGYTITSGYDWTWLRKFPGNKMEWMGYISYSGFTNYNPSLRSRISITRDTSKNQFFLQLNSVTAEDTATYFCTRTRGYNPFPYWGQGTLVTVSS VL: AIQVTQSPTSLSASLGDRVTLTCRASQDINNKMAWYQQKPGEVPQLLIYYASTLQSGTPSRFSGSGSGTDFSFTISHLQSEDFATYYCLQGYSLYTFGAGTKLELK	+ (Positive (+)=MFI>3× background level)			−
C4.1073: anti-ABCC4 antibody raised in rats; VH SEQ ID NO: 24, VL SEQ ID NO: 146 (antibody, V domains shown) VH: EVQMKESGPGLVQPSQTLSLTCTVSGFSLTSYHVHWVRQPPGKGLEWMGVMWSDGDTSYNSALKSRLSINRDTSQSRVFLKMNSLQTEDTSTYYCARDRDVLYYDGDFSPFVMDAWGQGASVTVSS VL: DIQMTQSPSNLAASPGESVSINCKASKSISKFLAWYQQKSGKANKLLIYSASTLQSGTPSRFSGSGSGTDFTLTIRNLEPEDFGLYYCQQHNEYPLTFGSGTKLEIK	+ (Positive (+)=MFI>3× background level)	bind to both human and cynomolgus ABCC4	bind to both human and cynomolgus ABCC4	+ (Positive (+)=MFI>3× background level)

Now from value to molecule, other results behind:

Human ABCC4 binding [2]	binding to human ABCC4 expressed on cell surface [2]	Molecule	binding to cynomolgus ABCC4 expressed on cell surface [1]	Cynomolgus ABCC4 binding [1]
+ (Positive (+)=MFI>3× background level)	bind to both human and cynomolgus ABCC4	C4.1075: anti-ABCC4 antibody raised in rats; VH SEQ ID NO: 25, VL SEQ ID NO: 141 (antibody, V domains shown) VH: EVQLKESGPGLVQPSQTLSLTCTVSGLSLISSNINWVRQPPGKGLEWIGAISSGGSAFYNSALKSRLTSSRDTSKSQVFLKMNSLQTEDTAIYFCARGGSEDPDYFDYWGQGVMVTVSS VL: DIVMTQSPSSLAVSAGETVTINCKSSQSLLYSGNQKNYLAWYQQKPGQSPKLLIYWSSTRQSGVPDRFMGSGSGTDFTLTISSVQAEDLAIYYCQQYYDTPLTFGSGTKLEIK	bind to both human and cynomolgus ABCC4	+ (Positive (+)=MFI>3× background level)
+ (Positive (+)=MFI>3× background level)	bind to both human and cynomolgus ABCC4	C4.1164: anti-ABCC4 antibody raised in rats; VH SEQ ID NO: 36, VL SEQ ID NO: 153 (antibody, V domains shown) VH: EVQLVESDGGLVQPGRSLKLSCAASGFTFSDYYMAWVRQAPTKGLYWVASISYDGSTTYYRDSVKGRFTISRDNAKSTLYLQMGSLRSEDTATYYCARLSIRYKGVMDAWGRGASVTVS VL: DIQMTQSPSNLAASPGESVSINCKASETIYKYLAWYQQKPGRTNKLLIYSGSTLQSGTPSRFSGSGSGTDFTLTIRNLEPEDFGRYYCQHHVEYPPTFGAGTKLELK	bind to both human and cynomolgus ABCC4	+ (Positive (+)=MFI>3× background level)
+ (Positive (+)=MFI>3× background level)	bind to both human and cynomolgus ABCC4	C4.1143: anti-ABCC4 antibody raised in rats; VH SEQ ID NO: 31, VL SEQ ID NO: 148 (antibody, V domains shown) VH: EVQLVESDGGLLQPGRSLKLSCAASGFTFSDFYMAWVRQAPTKGLEWIATISHDGRNTYYRDSVKGRFTISRDNAKRTLYLEMDSLRSEDTATYYCATLTTRYKGVMEAWGQGASVTVSS VL: DVVMTQSPSHLAASPGESVSINCKASKNIYKYLAWYQQKPGKTNKLLIYSGSTLQSGTPSRFSGSGSGSDFTLTIRNLEPEDFGLYYCQHHNEYPPTFGGGTKLEIK	bind to both human and cynomolgus ABCC4	+ (Positive (+)=MFI>3× background level)
